Patent US20100254982A1 (VIVENTIA BIOTECHNOLOGIES, published 2010)

Assays:
[1] = biological target: Glucose transporter 8 (GLUT8), cancer-associated variant expressed on the surface of cancer cells (VB1-050 antigen) (human) (UniProt Q9NY64); experiment: cell-based or functional assay
[2] = biological target: Glucose transporter 8 (GLUT8), cancer-associated variant expressed on the surface of cancer cells (VB1-050 antigen) (human) (UniProt Q9NY64); experiment: flow cytometry saturation curve on antigen-positive cells
[3] = biological target: T1, Glucose transporter 8 (GLUT8), cancer-associated variant expressed on the surface of cancer cells (VB1-050 … (human, UniProt Q9NY64 1-477)); experiment: flow cytometry, melanoma cell lines A-375, SK-MEL-5, SK-MEL-28 (mean of 3)
T1 construct: whole, on cells; Endogenous antigen of human tumor cell lines, identified by immunoprecipitation with VB1-050 and mass spectrometry from HepG2 and MCF-7 membranes; Only L12A and L13A are printed with old and new residues; In the immunoprecipitations the membrane preparations were deglycosylated with N-Glycanase; also called VB1-050Ag; VB1-050 Ag
T1 sequence (looked up): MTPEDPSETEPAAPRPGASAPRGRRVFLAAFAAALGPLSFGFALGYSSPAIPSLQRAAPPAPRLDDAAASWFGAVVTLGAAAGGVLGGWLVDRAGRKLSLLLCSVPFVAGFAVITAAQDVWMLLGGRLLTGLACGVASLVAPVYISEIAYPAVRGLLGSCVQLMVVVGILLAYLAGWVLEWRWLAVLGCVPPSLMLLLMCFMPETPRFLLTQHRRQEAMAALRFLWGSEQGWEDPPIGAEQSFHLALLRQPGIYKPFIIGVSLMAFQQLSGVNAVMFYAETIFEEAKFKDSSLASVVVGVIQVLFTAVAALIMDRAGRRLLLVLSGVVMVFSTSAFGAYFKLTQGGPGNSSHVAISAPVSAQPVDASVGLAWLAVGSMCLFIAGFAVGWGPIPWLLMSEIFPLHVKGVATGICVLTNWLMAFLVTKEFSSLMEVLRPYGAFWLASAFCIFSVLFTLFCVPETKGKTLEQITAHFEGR

[4] = biological target: T1, Glucose transporter 8 (GLUT8), …; experiment: flow cytometry, kidney tumor cell lines Caki-1, A498, ACHN (mean of 3)
[5] = biological target: T1, Glucose transporter 8 (GLUT8), …; experiment: flow cytometry, liver tumor cell lines SK-HEP-1, Hep-G2 (mean of 2)
[6] = biological target: T1, Glucose transporter 8 (GLUT8), …; experiment: flow cytometry, lung tumor cell lines A-549, NCI-H460, NCI-H69 (mean of 3)
[7] = biological target: T1, Glucose transporter 8 (GLUT8), …; experiment: flow cytometry, normal lung cell line NHLF
[8] = biological target: T1, Glucose transporter 8 (GLUT8), …; experiment: flow cytometry on A-375 cells, surface-bound antibody left after 60 min at 37 °C (internalization experiment)
[9] = biological target: T1, Glucose transporter 8 (GLUT8), …; experiment: flow cytometry, prostate tumor cell lines DU-145, PC-3, LNCaP (mean of 3)
[10] = biological target: T1, Glucose transporter 8 (GLUT8), …; experiment: flow cytometry, breast tumor cell lines MCF-7, MDA-MB-231, MDA-MB-435S (mean of 3)
[11] = biological target: T1, Glucose transporter 8 (GLUT8), …; experiment: flow cytometry, colon tumor cell lines HT-29, SW480, WiDr (mean of 3)
[12] = biological target: T1, Glucose transporter 8 (GLUT8), …; experiment: flow cytometry, rectum tumor cell lines Sw837, NCI-H630 (mean of 2)
[13] = biological target: T1, Glucose transporter 8 (GLUT8), …; experiment: flow cytometry, normal endothelial cell line HUVEC
[14] = biological target: T1, Glucose transporter 8 (GLUT8), …; experiment: flow cytometry, normal kidney cell line HRE
[15] = biological target: T1, Glucose transporter 8 (GLUT8), …; experiment: flow cytometry, normal prostate cell line PrEC
[16] = biological target: T1, Glucose transporter 8 (GLUT8), …; experiment: flow cytometry on A-375 cells, cells kept on ice for 120 minutes; above negative control human IgG (4B5)
[17] = biological target: T1, Glucose transporter 8 (GLUT8), …; experiment: flow cytometry, pancreas tumor cell lines PANC-1, BxPC-3, MIA PaCa-2 (mean of 3)
[18] = biological target: T1, Glucose transporter 8 (GLUT8), …; experiment: flow cytometry, cervix tumor cell lines HeLa, C-41, C-33A (mean of 3)
[19] = biological target: T1, Glucose transporter 8 (GLUT8), …; experiment: flow cytometry, head & neck tumor cell lines SCC-15, SCC-25 (mean of 2)
[20] = biological target: T1, Glucose transporter 8 (GLUT8), …; experiment: flow cytometry titration on A-375 cells, Lineweaver-Burk method
[21] = biological target: T1, Glucose transporter 8 (GLUT8), …; experiment: flow cytometry competition on antigen-positive cells; competitor VB6-050 fixed at 250 µg/mL, detected with anti-bouganin antibody
[22] = biological target: T1, Glucose transporter 8 (GLUT8), …; experiment: flow cytometry, normal breast cell line HMEC
[23] = biological target: T1, Glucose transporter 8 (GLUT8), …; experiment: flow cytometry, bladder tumor cell lines UM-UC-3, T24 (mean of 2)
[24] = biological target: T1, Glucose transporter 8 (GLUT8), …; experiment: flow cytometry on A-375 cells, surface-bound antibody left after 120 min at 37 °C (internalization experiment)
[25] = biological target: T1, Glucose transporter 8 (GLUT8), …; experiment: flow cytometry, stomach tumor cell lines AGS, NCI-N-87, KATO III (mean of 3)
[26] = biological target: T1, Glucose transporter 8 (GLUT8), …; experiment: flow cytometry, ovarian tumor cell lines SK-OV-3, OVCar-3 (mean of 2)
[27] = biological target: T1, Glucose transporter 8 (GLUT8), …; experiment: flow cytometry, endometrium tumor cell lines RL-95-2, HEC-1-A (mean of 2)

B1: VB6-050 (soluble Fab-de-bouganin fusion protein derived from VB1-050) (Fab, V domains shown)
VH: EVQLLESGGDLVQPGGSLRLSCAASGFTFSNYAMSWVRQAPGKGLEWVSAITPSGGSTNYADSVKGRFTISRDNSQNTLYLQMNSLRVEDTAVYYCGRVPYRSTWYPLYWGQGTLVTVSS
VL: DIQMTQSPSSLSASVGDRVTITCRASQDISNYLAWFQRKPGKAPKSLIYAASSLHSKVPTQFSGSGSGTDFTLTISSLQPEDFATYYCLQYSTYPITFGGGTKVEIK
- IC50 (MTS cytotoxicity assay, 5 days, antigen-positive cells MB-435S) [1]: 0.4 µM
- saturation point [2]: 250 µg/mL

B2: VB1-050 monoclonal antibody (antibody, V domains shown)
VH: B1 VH
VL: DIQMTQSPSSLSASVGDRVTITCRASQDISNYLAWFQRKPGKAPKSLIYAASSLHSKVPTQFSGSGSGTDFTLTISSLQPEDFATYYCLQYSTYPITFGGGTKVEIKR
notes: also called VB1-050 IgG; parental IgG
- MF (mean fold increase in median fluorescence over control antibody) [3]: 22.7 fold
- MF (mean fold increase in median fluorescence over control antibody) [4]: 18.4 fold
- MF (mean fold increase in median fluorescence over control antibody) [5]: 14.6 fold
- MF (mean fold increase in median fluorescence over control antibody) [6]: 14.8 fold
- MF (mean fold increase in median fluorescence over control antibody) [7]: 8.7 fold
- Fold-increase in MF [8]: 49.2 fold
- MF (mean fold increase in median fluorescence over control antibody) [9]: 19.6 fold
- MF (mean fold increase in median fluorescence over control antibody) [10]: 29.9 fold
- MF (mean fold increase in median fluorescence over control antibody) [11]: 13.3 fold
- MF (mean fold increase in median fluorescence over control antibody) [12]: 15.2 fold
- MF (mean fold increase in median fluorescence over control antibody) [13]: 5 fold
- MF (mean fold increase in median fluorescence over control antibody) [14]: 12.5 fold
- MF (mean fold increase in median fluorescence over control antibody) [15]: 2.1 fold
- Fold-increase in MF [16]: 129 fold
- MF (mean fold increase in median fluorescence over control antibody) [17]: 7.6 fold
- MF (mean fold increase in median fluorescence over control antibody) [18]: 11.8 fold
- MF (mean fold increase in median fluorescence over control antibody) [19]: 11.4 fold
- Kd [20]: 0.049 µM
- IC50 [21]: 180 mg/L
- MF (mean fold increase in median fluorescence over control antibody) [22]: 3.1 fold
- MF (mean fold increase in median fluorescence over control antibody) [23]: 9.8 fold
- Fold-increase in MF [24]: 39.3 fold
- MF (mean fold increase in median fluorescence over control antibody) [25]: 9.6 fold
- MF (mean fold increase in median fluorescence over control antibody) [26]: 21.7 fold
- MF (mean fold increase in median fluorescence over control antibody) [27]: 7 fold
